Sequences and labels used below:
B1: pMT12: pMT1 with Y200F S182E L273V L180A A202L Y65F C156D T91P N231D (protein)
chain: MPQEARTPQQQVTADEVGDWYDKFGEVYHLTLGESVHCGLWFPPDAPVPQDMELVTMSSQAQDRFTDYLIETLDPKAGQHLLDIGCGTGRPALKAARQRGIAVTGVAVSKEQIAAANRLAAGHGLTERLTFEVADAMRLPYEDESFDCAWAIESLDHMDRAKALGEAWRVLKPGGDLLVAEEVVTEELTEPETALFETLFALNVPPRLGEFFDIVSGAGFHTLSLKDLSADLAMTMNVFALGVYSRRAEFTERFGAEFVDGLLAGLGSAQETVIRKTRFFMATLRKPAV
modifications: Modified from pMT1
notes: pMT1 with Y200F S182E L273V L180A A202L Y65F C156D T91P N231D
B2: Q11P (protein)
chain: B1 chain with Q11P
modifications: Modified from pMT1
B3: A107S (protein)
chain: B1 chain with A107S
modifications: Modified from pMT1
B4: A95L (protein)
chain: B1 chain with A95L
modifications: Modified from pMT1
B5: S268R (protein)
chain: B1 chain with S268R
modifications: Modified from pMT1
B6: Q11V (protein)
chain: B1 chain with Q11V
modifications: Modified from pMT1
B7: K94R (protein)
chain: B1 chain with K94R
modifications: Modified from pMT1
B8: A269R (protein)
chain: B1 chain with A269R
modifications: Modified from pMT1
B9: A269L (protein)
chain: B1 chain with A269L
modifications: Modified from pMT1
B10: A107G (protein)
chain: B1 chain with A107G
modifications: Modified from pMT1
B11: A269G (protein)
chain: B1 chain with A269G
modifications: Modified from pMT1
B12: M137N (protein)
chain: B1 chain with M137N
modifications: Modified from pMT1
B13: A14P (protein)
chain: B1 chain with A14P
modifications: Modified from pMT1
B14: K94V (protein)
chain: B1 chain with K94V
modifications: Modified from pMT1
B15: S268Q (protein)
chain: B1 chain with S268Q
modifications: Modified from pMT1
B16: F212L: pMT12 with F212L (protein)
chain: B1 chain with F212L
modifications: Modified from pMT1
B17: A95V (protein)
chain: B1 chain with A95V
modifications: Modified from pMT1
B18: S268L (protein)
chain: B1 chain with S268L
modifications: Modified from pMT1
B19: A95I (protein)
chain: B1 chain with A95I
modifications: Modified from pMT1
B20: L195V (protein)
chain: B1 chain with L195V
modifications: Modified from pMT1
B21: M137S (protein)
chain: B1 chain with M137S
modifications: Modified from pMT1
B22: A14G (protein)
chain: B1 chain with A14G
modifications: Modified from pMT1
B23: H123N (protein)
chain: B1 chain with H123N
modifications: Modified from pMT1
B24: T185L (protein)
chain: B1 chain with T185L
modifications: Modified from pMT1
B25: A95C: pMT12 with A95C (protein)
chain: B1 chain with A95C
modifications: Modified from pMT1
B26: A14R (protein)
chain: B1 chain with A14R
modifications: Modified from pMT1
B27: E190A (protein)
chain: B1 chain with E190A
modifications: Modified from pMT1
B28: S268K (protein)
chain: B1 chain with S268K
modifications: Modified from pMT1
B29: Q11L (protein)
chain: B1 chain with Q11L
modifications: Modified from pMT1
B30: M137H (protein)
chain: B1 chain with M137H
modifications: Modified from pMT1
B31: A14T (protein)
chain: B1 chain with A14T
modifications: Modified from pMT1
B32: A14L (protein)
chain: B1 chain with A14L
modifications: Modified from pMT1
B33: A269Y (protein)
chain: B1 chain with A269Y
modifications: Modified from pMT1
B34: Q11M (protein)
chain: B1 chain with Q11M
modifications: Modified from pMT1
B35: S268H: pMT12 with S268H (protein)
chain: B1 chain with S268H
modifications: Modified from pMT1
B36: M137D (protein)
chain: B1 chain with M137D
modifications: Modified from pMT1
B37: T185V (protein)
chain: B1 chain with T185V
modifications: Modified from pMT1
B38: Q60V: pMT7 with Q60V (protein)
chain: B1 chain with Q60K, P91T, D156C, D231N
modifications: Modified from pMT1

Changes are numbered by the printed parent chain. Numbers in names are those of the source.

The first data set is described as follows: In-vivo cis-α-irone production screening of pMT7 and pMT12 mutants. Type of data set: cell-based, Escherichia coli. The following applies: mutations made to pMT12; normalized to pMT12 (=1). The gist of the method:
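E. coli BL21(DE3) ΔaroA ΔaroB ΔaroC ΔserC strains, with or without ΔmetJ, carried the plasmids and were grown in 1 ml auto-inducing defined medium (glucose/glycerol, 30 mM lactose) at 28 °C for 3 days. Products were extracted into hexane and measured by GC-MS. Production is a semi-quantitative fold change relative to pMT12.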
Regarding B1, the “Fold change in in-vivo cis-α-irone production” value (shortened to “Fold change”) was determined as 1.
Same read-out and setting: the figure for B2 is 0.92; for B3 it is 1.17; for B4 it is 0.92.
For the molecule B5, the “Fold change” value came to 1.23.
Same read-out and setting: the figure for B6 is 0.88; for B7 it is 0.97; for B8 it is 1.22.
On to B9, for which the “Fold change” value worked out at 1.29.
On the same count and under the same terms, the value for B10 was 0.95.
On the same count and under the same terms, the figure for B11 is 1.23; for B12 it is 1.11; for B13 it is 0.92.
B14: the “Fold change” value turned out to be 0.84.
With B15, the “Fold change” value turned out to be 1.32.
The same measure, in the same setting: the value for B16 was 1.11; that for B17 was 0.94.
Same read-out and setting: the value for B18 was 1.18; that for B19 was 0.98; that for B20 was 1.02.
Same read-out and setting: the figure for B21 is 1.11.
On to B22, for which the “Fold change” value is on record as 0.92.
On the same count and under the same terms, the figure for B23 is 0.91; for B24 it is 1.07; for B25 it is 0.95.
Still for that read-out and setting: the value for B26 was 0.93; that for B27 was 1.12.
The same measure, in the same setting: the figure for B28 is 1.35; for B29 it is 0.92.
For the molecule B30, the “Fold change” value amounted to 1.11.
For B31, the “Fold change” value came to 0.90.
The same measure, in the same setting: the figure for B32 is 0.92; for B33 it is 1.21; for B34 it is 0.90.
Still for that read-out and setting: the value for B35 was 1.26.
On the same count and under the same terms, the figure for B36 is 1.13.
On to B37, for which the “Fold change” value was 1.14.

The same data set, now with this note: single mutations vs parent (pMT7 or pMT12).
Consider B38, for which the “in-vivo production of cis-α-irone (in words)” value is reported as “increased cis-α-irone production in-vivo”.

Another data set can be described thus: Cell lysate reaction of pMT enzymes with psi-ionone, irones quantified by HS-SPME-GCMS. Type of data set: biochemical. The conditions noted are these: cell lysate reaction, vs parent or control. Summed up:
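pMT1 site-saturation mutants were expressed in E. coli BL21(DE3) and lysed, and lysates were incubated 2 days at 28 °C with 0.2 mM SAM and 10 mg/L psi-ionone (plus caryophyllene) in 50 mM Tris pH 7, 10 mM MgCl2. Cis-α-irone was measured by HS-SPME-GCMS peak area and given as fold change over non-mutated enzyme.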
As to B1, the “irone production / methyltransferase activity towards psi-ionone (in words)” value is given as “maintained the percentage of cis-α-irone produced while further improving the absolute amount produced”.

The data set is the same for the next values; noted with them: single mutations vs parent (pMT7 or pMT12).
With B16, the “in-vitro production of cis-α-irone (in words)” value is “moderate increase”.
Still for that read-out and setting: the entry for B25 is “moderate increase”.
As to B38, the “in-vitro production of cis-α-irone (in words)” value was “increased the cis-α-irone production in-vitro”.
Same read-out and setting: the entry for B35 is “moderate increase”.
